The text below walks through data of patent publication US20250332277A1 (Eli Lilly, published 2025).

Test [1] addresses T1, human PTK-7 on cells (OV90-PTK-7, NCI-H446, OVCAR-3) (human, UniProt Q13308 31-1070).
T1 construct: OV90-PTK-7 is an ovarian tumour line engineered to overexpress human PTK-7; NCI-H446 and OVCAR-3 express it endogenously; also called PTK-7 receptor; CCK-4
T1 sequence: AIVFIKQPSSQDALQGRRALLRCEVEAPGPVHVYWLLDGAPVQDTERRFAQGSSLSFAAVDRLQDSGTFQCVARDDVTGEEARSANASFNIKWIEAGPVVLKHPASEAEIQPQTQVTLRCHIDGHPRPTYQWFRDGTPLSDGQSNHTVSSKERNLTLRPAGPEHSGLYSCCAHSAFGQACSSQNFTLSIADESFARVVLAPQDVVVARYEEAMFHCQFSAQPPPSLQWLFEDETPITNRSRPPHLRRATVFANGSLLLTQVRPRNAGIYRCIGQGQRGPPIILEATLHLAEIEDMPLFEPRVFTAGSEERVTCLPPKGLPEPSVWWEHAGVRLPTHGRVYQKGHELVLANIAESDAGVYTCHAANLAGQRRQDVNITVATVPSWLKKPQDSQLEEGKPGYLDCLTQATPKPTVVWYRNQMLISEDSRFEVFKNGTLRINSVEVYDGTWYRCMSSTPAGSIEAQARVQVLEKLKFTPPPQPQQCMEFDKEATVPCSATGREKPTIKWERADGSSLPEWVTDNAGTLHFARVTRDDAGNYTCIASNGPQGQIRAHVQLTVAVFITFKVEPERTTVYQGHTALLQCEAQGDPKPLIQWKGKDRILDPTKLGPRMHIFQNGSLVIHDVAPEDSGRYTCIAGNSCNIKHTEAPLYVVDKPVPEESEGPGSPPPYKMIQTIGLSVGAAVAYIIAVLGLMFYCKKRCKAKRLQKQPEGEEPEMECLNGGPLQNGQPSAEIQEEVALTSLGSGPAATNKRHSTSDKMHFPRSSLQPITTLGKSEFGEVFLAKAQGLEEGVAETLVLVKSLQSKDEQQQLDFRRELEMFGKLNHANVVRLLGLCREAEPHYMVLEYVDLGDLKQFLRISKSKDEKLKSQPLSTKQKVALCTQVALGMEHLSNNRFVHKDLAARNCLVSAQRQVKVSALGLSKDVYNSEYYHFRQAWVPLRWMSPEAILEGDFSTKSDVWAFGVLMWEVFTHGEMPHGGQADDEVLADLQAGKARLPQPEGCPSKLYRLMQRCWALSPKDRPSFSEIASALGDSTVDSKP
Nature of the test: flow cytometry, OVCAR3 cells. The method, then:
(§1) OV90-PTK-7, overexpressing engineered ovarian tumor line representing high expression, NCI-H446 human lung cancer cells representing medium endogenous expression and OVCAR-3 human ovarian cancer cells representing low endogenous expression. […] OV90 parental cells and Namalwa-luc-GFP cells were selected as the PTK-7 negative cell lines. Antibody binding was quantified via flow cytometry and both the EC₅₀ of the binding curves and the maximum binding MFI for each antibody were recorded.
(§2) Cells were dissociated using non-enzymatic dissociation buffer for 5 min at 37° C. Cells were counted and aliquoted to a V-bottom polypropylene 96-well plate at 10⁵ cells/well. Cells were centrifuged at 1800 rpm×3 min and the supernatant discarded. An 11-point antibody dilution series was prepared in assay buffer (1×PBS containing 5% FBS) starting at 300 nM and diluting 1:4 down. The dilution series was added to cells at 100 μL/well and mixed by pipetting. Several untreated control wells/cell lines were prepared in assay buffer alone. Cells and antibodies were incubated at 4° C. on an orbital shaker for 1 hour. After incubation, the assay plates were centrifuged and washed twice with 300 μL/well of assay buffer. Cell pellets were then stained with a 1:500 dilution of Alexa647 conjugated mouse anti-human IgG secondary antibody in assay buffer, at 100 μL/well. Assay plates were incubated shaking in the dark at 4° C. for 1 hour. After incubation, plates were centrifuged, and the cells were washed twice with 300 μL/well of assay buffer. A 1:2000 dilution of Zombie Green viability marker in 1×PBS was aliquoted to the cells at 100 μL/well and plates were incubated in the dark for 10 min shaking at room temperature. Cell pellets were then washed 1× with assay buffer and fixed with 200 μL/well of 4% paraformaldehyde in 1×PBS in the dark at room temperature for 15 min. Cells were centrifuged and washed before resuspending in 100 μL of assay buffer for acquisition on Attune Cytpix Cytometer.
(§3) Cells were acquired on an Attune Cytpix Cytometer and FCS files generated using Attune™ Cytometric Software (v. 6.0.1). FCS files were then analyzed on FlowJo (v10.8.1).
A general note: A flow cytometer gives signals particle by particle.

The target of test [2] is T1, human PTK-7 on cells (OV90-PTK-7, …). Nature of the test: flow cytometry, NCI-H446 cells. As to the method:
as §1, §2, §3

Test [3] shares this target. Nature of the test: flow cytometry, OV90-PTK-7 cells. As to the method:
as §1, §2, §3

Test [4] shares this target. Briefly: flow cytometry, OVCAR3 cells; against cofetuzumab. The method, then: as §1
as §2, with “Cells were centrifuged and washed before resuspending in 100 μL of assay buffer for acquisition on Attune Cytpix Cytometer.” left out
as §3

Test [5] shares this target. Briefly: flow cytometry, NCI-H446 cells; against cofetuzumab. As to the method: as §1
as §2, with “Cells were centrifuged and washed before resuspending in 100 μL of assay buffer for acquisition on Attune Cytpix Cytometer.” left out
as §3

The target is the same in test [6]. Nature of the test: flow cytometry, OV90-PTK-7 cells; against cofetuzumab. As to the method:
as §1
as §2, with “Cells were centrifuged and washed before resuspending in 100 μL of assay buffer for acquisition on Attune Cytpix Cytometer.” left out
as §3

Test [7] has the same target. Nature of the test: cell-based or functional assay.
The target of test [8] is T2, recombinant human PTK7 (Acro Biosystems Cat. No. PT7-H52H3) (human, UniProt Q13308 31-704).
T2 construct: Bought recombinant protein; also called human PTK7 analyte
T2 sequence: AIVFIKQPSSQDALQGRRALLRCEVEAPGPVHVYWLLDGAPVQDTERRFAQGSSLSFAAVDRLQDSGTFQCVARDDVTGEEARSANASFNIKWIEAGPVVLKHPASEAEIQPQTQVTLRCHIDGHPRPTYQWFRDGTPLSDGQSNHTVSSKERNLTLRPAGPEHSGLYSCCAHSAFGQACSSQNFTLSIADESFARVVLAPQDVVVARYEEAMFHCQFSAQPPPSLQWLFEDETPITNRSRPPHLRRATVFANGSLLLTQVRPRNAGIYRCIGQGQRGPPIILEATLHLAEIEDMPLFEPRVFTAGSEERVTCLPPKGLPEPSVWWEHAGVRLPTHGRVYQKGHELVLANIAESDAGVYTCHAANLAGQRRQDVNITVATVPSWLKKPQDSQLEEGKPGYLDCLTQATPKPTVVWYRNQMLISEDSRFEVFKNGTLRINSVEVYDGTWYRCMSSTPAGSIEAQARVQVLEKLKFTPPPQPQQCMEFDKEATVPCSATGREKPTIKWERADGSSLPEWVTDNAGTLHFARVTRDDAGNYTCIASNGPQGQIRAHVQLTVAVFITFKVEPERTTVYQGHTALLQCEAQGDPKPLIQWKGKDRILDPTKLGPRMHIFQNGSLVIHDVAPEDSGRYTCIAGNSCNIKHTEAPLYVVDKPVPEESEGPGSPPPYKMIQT
Briefly: SPR, Biacore 8K+, ADC captured by anti-human Fc, human PTK7 as analyte, 37 C, 1:1 model. As to the method: A Biacore 8K+ instrument (Cytiva, Marlborough, MA) was used to determine kinetics and affinity parameters for the binding interactions of ADCs binding to recombinant human PTK7 (Acro Biosystems Cat. No. PT7-H52H3, Newark, DE).
In each analysis cycle, a different ADC was captured on flow cell 2 of each channel by injecting a 5 μg/mL solution at 10 μL/min for 2 minutes. After capture, the same analyte was injected on flow cells 1 and 2 in all 8 channels for 2 minutes at 30 μL/min and dissociation was monitored for 10 minutes. After dissociation, all surfaces were regenerated with three consecutive 1-minute injections of 75 mM phosphoric acid at 10 μL/min. ADC capture and analyte cycles were repeated to obtain human PTK7 analyte binding of each ADC at analyte concentrations of 0, 2.47, 7.41, 22.2, 66.7, 200, and 600 nMs.
Sensorgram data were reference subtracted and blank subtracted, then globally fit with the default 1:1 binding model in Biacore Insight Evaluation Software v3.0.12.15655, as shown in Table 4.

B1: Cofetuzumab (antibody, V domains shown)
VH: QVQLVQSGPEVKKPGASVKVSCKASGYTFTDYAVHWVRQAPGKRLEWIGVISTYNDYTYNNQDFKGRVTMTRDTSASTAYMELSRLRSEDTAVYYCARGNSYFYALDYWGQGTSVTVSS
VL: EIVLTQSPATLSLSPGERATLSCRASESVDSYGKSFMHWYQQKPGQAPRLLIYRASNLESGIPARFSGSGSGTDFTLTISSLEPEDFAVYYCQQSNEDPWTFGGGTKLEIK
With B1, the “Average Max MFI” value came to 21900 MFI in test [1], 26800 MFI in test [2] and 68500 MFI in test [3]. For the same molecule, the results for the EC50 in test [1], in test [2] and in test [3] were 0.7 nM, 0.54 nM and 1.41 nM, respectively.

B2: Ab4 (antibody, human IgG1, kappa, L234A L235A, V domains shown)
VH: EVQLVESGGGLVKPGGSLRLSCAASGFTFSSYSMNWVRQAPGKGLEWVSSIDSSSSFIYYADSVKGRFTISRDNAKNSLYLQMNSLRAEDTAVYYCARGTGLFDFWGQGTLVTVSS
VL: EIVLTQSPGTLSLSPGERATLSCRASQSFSSSYLAWYQQKPGQAPRLLIYGASSRATGIPDRFSGSGSGTDFTLTISRLEPEDFAVYYCQQYGRTPWTFGQGTKVEIKR
notes: Fully human antibody; also called Antibody 4; PTK-7 Antibody Ab4
Take B2: the entries for the “Average Max MFI” value in test [1], in test [2] and in test [3] were 16400 MFI, 26100 MFI and 69900 MFI, respectively. Also, the EC50 in test [1] amounted to 0.95 nM; in test [2], 0.54 nM; in test [3], 1.28 nM. For the same molecule, the “% of Cofetuzumab (Average Max MFI)” value in test [4] came out at 75%; in test [5], 97.4%; in test [6], 102%.

B3: Ab1 (antibody, human IgG1, kappa, L234A L235A, V domains shown)
VH: EVQLVESGGGLVKPGGSLRLSCAASGFTFSSYIMNWVRQAPGKGLEWVSSISSSSTFIYYADSVKGRFTISRDNAKNSLYLQMNSLRAEDTAVYYCAKGFDYWGQGTLVTVSS
VL: DIQLTQSPSFLSASVGDRVTITCRASQDISSYLVWYQQKPGKAPKLLIYAASTLQSGVPSRFSGSGSGTEFTLTISSLQPEDFATYYCQQLNTYPRTFGQGTKVEIKR
notes: Fully human antibody; also called Antibody 1; PTK-7 Antibody Ab1
On to B3, for which the “Average Max MFI” value was 15700 MFI in test [1], 23200 MFI in test [2] and 66100 MFI in test [3]. Besides, the EC50 was 2.81 nM in test [1], 0.7 nM in test [2] and 1.25 nM in test [3]. Further, the entries for the “% of Cofetuzumab (Average Max MFI)” value in test [4], in test [5] and in test [6] were 71.6%, 86.3% and 96.5%, respectively.

B4: Ab2 (antibody, human IgG1, kappa, L234A L235A, V domains shown)
VH: QVQLQESGPGLVKPSETLSLTCTVSGGSISTYYWSWIRQPAGKGLEWIGRIYTSGLTNYNPSLKSRVTMSVDTSKNQFSLKLSSVTAADTAVYYCARDPHYYDGSGFDYWGQGTLVTVSS
VL: not shown
notes: Fully human antibody; also called Antibody 2
Regarding B4, the “Average Max MFI” value in test [1] stood at 19200 MFI; in test [2], 26200 MFI; in test [3], 70500 MFI. Also, the values for the 50% effective concentration (EC50) in test [2] and in test [3] were 0.6 nM and 1.83 nM, respectively. Besides, the “% of Cofetuzumab (Average Max MFI)” value in test [4] is 87.7%; in test [5], 97.6%; in test [6] it was 103%.

B5: Ab1-PSAR10-VA-exatecan (other)
heavy: EVQLVESGGGLVKPGGSLRLSCAASGFTFSSYIMNWVRQAPGKGLEWVSSISSSSTFIYYADSVKGRFTISRDNAKNSLYLQMNSLRAEDTAVYYCAKGFDYWGQGTLVTVSSASTKGPSVFPLAPSSKSTSGGTAALGCLVKDYFPEPVTVSWNSGALTSGVHTFPAVLQSSGLYSLSSVVTVPSSSLGTQTYICNVNHKPSNTKVDKRVEPKSCDKTHTCPPCPAPEAAGGPSVFLFPPKPKDTLMISRTPEVTCVVVSVSHEDPEVKFNWYVDGVEVHNAKTKPREEQYNSTYRVVSVLTVLHQDWLNGKEYKCKVSNKALPAPIEKTISKAKGQPREPQVYTLPPSREEMTKNQVSLTCLVKGFYPSDIAVEWESNGQPENNYKTTPPVLDSDGSFFLYSKLTVDKSRWQQGNVFSCSVMHEALHNHYTQKSLSLSPGK
light: DIQLTQSPSFLSASVGDRVTITCRASQDISSYLVWYQQKPGKAPKLLIYAASTLQSGVPSRFSGSGSGTEFTLTISSLQPEDFATYYCQQLNTYPRTFGQGTKVEIKRTVAAPSVFIFPPSDEQLKSGTASVVCLLNNFYPREAKVQWKVDNALQSGNSQESVTEQDSKDSTYSLSSTLTLSKADYEKHKVYACEVTHQGLSSPVTKSFNRGEC
modifications: PSAR10-VA-exatecan linker-payload (Formula XV) on cysteine thiols after full reduction of the antibody (DAR 8 procedure); positions not stated for this ADC
notes: Antibody-drug conjugate of Ab1; also called Ab1-VA-Exatecan
Take B5: the “Cytotoxicity IC50, OVCAR-3 cells (CellTiter-Glo, 7 days)” value in test [7] worked out at 4 nM. Also, in test [8], the Kd came to 28.9 nM, the koff came out at 0.0342 s⁻¹ and the kon was 1.19e+06 M⁻¹ s⁻¹.

For orientation: EC50 means the concentration needed to bring the measured effect to its halfway point. A low value points to higher potency in that assay. What is called Kd is the free concentration of one partner at which half of the binding sites on the other are occupied at equilibrium, for simple one-to-one binding. As usually defined, the koff is a measure of how fast the partners let go of each other. The kon is the second-order rate constant of association.
